Measurements published in US20160032017A1 (ACADEMIA SINICA, published 2016).

Assays:
[1] = molecular target: T1, synthetic 22 amino acid peptide P(25→46), GLPRAAGGSVPHPRCHCGAGRA (human); assay: ELISA, plate coated with P(25→46)
T1 construct: Residues 25-46 are counted on the CεmX domain; The peptide was coated on the ELISA plates without a carrier; the OVA conjugate was used only for immunization; also called target antigen peptide
T1 peptide: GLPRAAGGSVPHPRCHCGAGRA
Method: To screen hybridomas for antibody secretion and to map the epitopes of secreted antibodies, the wells of microtiter plates were coated by incubating them overnight at 4° C. with 10 μg/mL of P(25→46) in 0.1 M carbonate buffer, pH 9.6. The wells were first blocked for 1 hour with 1% bovine serum albumin (BSA) in phosphate buffered saline (PBS), pH7.3, and then incubated for 1 hour at 37° C. at various dilutions with antisera or control antibodies. The wells were then washed and the ligand-bound antibodies detected by horse radish peroxidase (HRP)-conjugated goat anti-mouse IgG, Fcγ fragment specific (Jackson ImmunoResearch), or anti-human IgG, Fcγ fragment specific (Jackson ImmunoResearch) at a dilution of 1:10,000. To detect the ligand-bound antibodies, the wells were incubated for 1 hour at 37° C., followed by incubation with TMB (3,3′,5,5′-tetramethylbenzidine) substrate (Clinical Scientific Products).
One of the monoclonal antibodies specific for an epitope within the P(25→46), herein designated mAb 23B11, was subjected to epitope mapping studies. Several peptides representing parts of the consecutive P(25→46) were synthesized, including P(29→46) (SEQ ID NO:1); P(31→46) (SEQ ID NO:3), P(33→46) (SEQ ID NO:4), P(27→40) (SEQ ID NO:5), and […] (SEQ ID NO:6), as shown in FIG. 1A. […] The reactivity of mAb 23B11 with the synthesized peptides were analyzed by ELISA. […]

[2] = molecular target: T2, synthetic peptide P(29→46), AAGGSVPHPRCHCGAGRA (human); assay: ELISA on synthetic CεmX peptides
T2 construct: Residues are counted on the CεmX domain
T2 peptide: AAGGSVPHPRCHCGAGRA

[3] = molecular target: T3, synthetic peptide P(27→40) (human); assay: ELISA on synthetic CεmX peptides
T3 construct: Residues are counted on the CεmX domain; also called Peptide M1′-8
T3 peptide: PRAAGGSVPHPRCH

[4] = molecular target: T4, synthetic peptide P(33→46), SVPHPRCHCGAGRA (human); assay: ELISA on synthetic CεmX peptides
T4 construct: Residues are counted on the CεmX domain
T4 peptide: SVPHPRCHCGAGRA

Measured: binding result

B1: monoclonal antibody mAb 23B11 (antibody, V domains shown)
VH: EVQLQQSGAELMKPGASVKISCKASGYTFSSYWIEWVYQRPGHGLEWIGEILPGSGSSNYNEKFEGKATFTADTSSNTAYMHLSSLTSEDSAVYYCARWDYYGGRGFDYWGQGTTLTAAA
VL: DIVMTQAAPSVPVTPGESVSISCRSSKSLLHSNGNIYLHWFLQRPGQSPQLLIYRMSNVASGVPDRFSGSGSGTVFTLRISRVEAEDVGVYYCMQNLEYPLTFGAGTKLELK
notes: Murine hybridoma antibody from BALB/c mice, detected with anti-mouse IgG
binds: [1] | [2] | [3] | [4]
